The values below come from article doi:10.1101/2024.10.30.620894 (bioRxiv, 2024).

For data set [1], the target named is VLDLR(28-797)Δ(751-779)-C-tag (VLDLR ectodomain, VLDLR-ed) (human) (UniProt P98155). Briefly: ELISA. (In general: An ELISA detects its analyte on a solid surface through an enzyme-linked reagent.)
The data set “SEC” deals with the molecule itself. Briefly: SEC. Background: In gel filtration, larger molecules generally elute earlier.

Broadly, the Kd is a measure of binding affinity in units of concentration. Read a high Kd as a looser complex. With “receptor-associated protein (RAP) (from UniProt P30533 36-357) (natural protein)”, the Kd in data set [1] amounted to 1.2 nM.

B1: wild-type clusterin (WT-Clu) (natural protein, human)
chain 1: DQTVSDNELQEMSNQGSKYVNKEIQNAVNGVKQIKTLIEKTNEERKTLLSNLEEAKKKKEDALNETRESETKLKELPGVCNETMMALWEECKPCLKQTCMKFYARVCRSGSGLVGRQLEEFLNQSSPFYFWMNGDRIDSLLENDRQQTHMLDVMQDHFSRASSIIDELFQDRFFTREPQDTYHYLPFSLPHRRPHFFFPKSRIVR
chain 2: SLMPFSPYEPLNFHAMFQPFLEMIHEAQQAMDIHFHSPAFQHPPTEFIREGDDDRTVCREIRHNSTGCLRMKDQCDKCREILSVDCSTNNPSQAKLRRELDESLQVAERLTRKYNELLKSYQWKMLNTSSLLEQLNEQFNWVSRLANLTQGEDQYYLRVTTVASHTSDSDVPSGVTEVVVKLFDSDPITVTVPVEVSRKNPKFMETVAEKALQEYRKKHREE
modifications: N-glycans (six in the whole protein) | N-glycans (six in the whole protein)
For orientation: stoichiometry N means the number of molecules, sites or subunits per partner or assembly. As to B1, in “SEC”, the “stoichiometry N” value stood at 2. This molecule gave a Kd in data set [1] of 80 nM.
